The target in one data set is factor VIIa (Homo sapiens, UniProt P08709). Put plainly: Fluorogenic TF cofactor activity assay with excess factor VIIa and D-FPR-(n-butyl)ANSN, read against the units/ml standard curve (FIG. 3). The format is biochemical. The procedure: A standardized preparation of recombinant human TF with a cofactor activity of 241 units/ml (specific activity of 3906 units/milligram) was serially diluted to create stock assay standards in the range of 8 to 0.25 units/ml. One hundred microliters of each stock standard was combined with 50 microliters of 120 nM factor VIIa. Subsequently 50 microliters of 150 uM D-FPR-(n-butyl)ANSN was added and the rate of substrate hydrolysis was measured in a fluorometer at an excitation wavelength of 350 nm and an emission wavelength of 470 nm. A standard curve was generated in FIG. 3 by plotting the change in fluorescent intensity over time versus the concentration of TF (in units/ml). In a similar manner, a sample of TF (0.8 mg/ml) with an unknown amount of cofactor activity was assayed for comparison to the standard. After correcting for assay dilution, the unknown sample returned an assay value of 2803 units per milliliter, and thus a specific activity of 3504 units per milligram. Consequently, this allows for comparison of different preparations of TF using their specific activity, which is a direct indication of quality and functionality.
Chain of factor VIIa (P08709 61-212 limits assumed): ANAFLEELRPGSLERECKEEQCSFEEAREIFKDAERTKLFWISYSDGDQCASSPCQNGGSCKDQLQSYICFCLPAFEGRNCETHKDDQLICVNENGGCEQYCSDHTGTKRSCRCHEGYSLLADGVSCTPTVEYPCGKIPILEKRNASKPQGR
Chain of factor VIIa (P08709 213-466 limits assumed): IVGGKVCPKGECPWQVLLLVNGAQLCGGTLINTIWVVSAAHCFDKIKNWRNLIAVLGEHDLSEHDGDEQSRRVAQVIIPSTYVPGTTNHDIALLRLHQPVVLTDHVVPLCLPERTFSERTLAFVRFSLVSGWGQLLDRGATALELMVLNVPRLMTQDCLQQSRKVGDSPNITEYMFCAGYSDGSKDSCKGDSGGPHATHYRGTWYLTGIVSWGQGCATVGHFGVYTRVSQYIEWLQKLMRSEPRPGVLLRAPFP
Chain of factor VIIa (P13726 33-295 partner): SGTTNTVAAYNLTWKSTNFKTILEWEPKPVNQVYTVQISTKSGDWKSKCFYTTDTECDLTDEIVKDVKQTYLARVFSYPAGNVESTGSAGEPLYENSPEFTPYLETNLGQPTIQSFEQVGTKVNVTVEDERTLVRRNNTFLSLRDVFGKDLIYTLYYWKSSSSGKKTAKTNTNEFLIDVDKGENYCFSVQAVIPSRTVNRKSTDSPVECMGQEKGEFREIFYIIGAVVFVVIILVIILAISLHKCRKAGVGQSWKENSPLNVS

For the next data set, the target named is fVIIa (Homo sapiens, UniProt P08709). The data set can be described thus: Fluorogenic TF assay of relipidated TF with 2 nM fVIIa and D-FPR-(n-butyl)ANSN, compared to the FIG. 2 calibration curve. The class given is biochemical. To be noted: 250 pM TF to 500 nM PCPS (75% PC, 25% PS); 2 nM fVIIa; 2 mM CaCl2, pH 7.4; 50 μM D-FPR-(n-butyl)ANSN. As for the experimental part:
Concentrations of TF were varied (0-500 pM) and incubated with 2 nM fVIIa in HBS pH 7.4, containing 2 mM Calcium Chloride (CaCl2), for 10 minutes at room temperature. Next, 50 μM D-FPR-(n-butyl)ANSN was added. Substrate hydrolysis was then monitored continuously for five minutes in a fluorometer at an excitation wavelength of 350 nm and an emission wavelength of 470 nm. The rates of substrate hydrolysis were determined for each TF concentration tested. The rate of hydrolysis by 2 nM fVIIa alone was measured and subtracted from the rates observed in the presence of TF. FIG. 2 is a graph of a calibration line based on these rates of hydrolysis at various TF concentrations.
In this example the preparation for TF employed in Example 3 was relipidated into phospholipid (PCPS) vesicles, composed of 75% phosphatidylcholine (PC) and 25% phosphatidylserine (PS). Relipidated TF, 250 pM TF to 500 nM PCPS, was incubated with 2 nM fVIIa in HBS, 2 mM CaCl2 pH 7.4 for ten minutes at room temperature. Next, 50 μM D-FPR-(n-butyl)ANSN was added. Rates of hydrolysis were determined and the rate of hydrolysis by 2 nM fVIIa alone was measured and subtracted from the rates observed in the presence of TF. The net rate of hydrolysis was then compared to the FIG. 2 calibration curve.

Where [1] appears, read: standardized preparation used as assay standard.

Chain of fVIIa (P08709 61-212 limits assumed): as the sequence (P08709 61-212 limits assumed) above
Chain of fVIIa (P08709 213-466 limits assumed): as the sequence (P08709 213-466 limits assumed) above
Chain of fVIIa (P13726 33-295 partner): as the sequence (P13726 33-295 partner) above

The substance “sample of TF: sample of tissue factor (0.8 mg/ml) with an unknown amount of cofactor activity” had a specific activity with factor VIIa (TF sample 0.8 mg/ml) of 3504 units per milligram. Moreover, the “cofactor activity, assay value after correcting for assay dilution” value with factor VIIa (TF sample 0.8 mg/ml, 120 nM factor VIIa stock, 150 uM D-FPR-(n-butyl)ANSN stock) is 2803 units per milliliter.

“Relipidated TF: TF preparation of Example 3 relipidated into PCPS vesicles (75% phosphatidylcholine, 25% phosphatidylserine)”: in the data set with fVIIa, the “TF added to the relipidation mixture expressed as functional TF” value is recorded as 35-40%.

As to “recombinant human TF: standardized preparation of recombinant human tissue factor used as assay standard”, in the data set with factor VIIa (setting [1]), the cofactor activity is given as 241 units/ml and the specific activity is given as 3906 units/milligram.

The values are drawn from US7604932B2, “Assay for tissue factor in a sample” (Haematologic Technologies, Inc., priority 2002, dated 2009).
